# Data: patent US20250019439A1 (Adimab, published 2025)
# B1: ADI-34136 (antibody, V domains shown)
# VH: QVQLVQSGAEVKKPGSSVKVSCKASGGTFSSYAISWVRQAPGQGLEWMGGIIPIFGTANYAQKFQGRVTITADESTSTAYMELSSLRSEDTAVYYCARGAPNYYGSGGYDDGWFDPWGQGTLVTVSS
# VL: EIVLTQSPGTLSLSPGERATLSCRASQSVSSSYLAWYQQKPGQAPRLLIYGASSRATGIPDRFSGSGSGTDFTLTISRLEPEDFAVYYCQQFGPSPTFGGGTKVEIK
# notes: anti-ID IgG
# Legend:
# ADI-67450 = molecular target: T1, ADI-67450; assay: SPR Carterra avidity, yeast anti-ID
# T1 construct: anti-CD3 antibody made in CHO cells, captured by anti-human Fc
# Procedure: (§1) Kinetic analysis was conducted at 25° C. in an HBSTE running buffer system (Carterra Cat #3630) using a Carterra LSA (Carterra USA, Salt Lake City, UT). The sample compartment was maintained at 20° C. for the duration of each experiment.
# (§2) For antibody capture experiments, a goat anti-human Fc antibody (Jackson ImmunoResearch) was covalently coupled to an HC30M sensor chip surface via standard amine coupling (1:1 EDC:NHS) and then blocked with ethanolamine (1.0 M, pH 8.5). Covalent coupling steps were performed in 25 mM MES buffer (Carterra, Cat #3625) plus 0.05% Tween20. The anti-CD3 antibodies (100 nM in running buffer) were flowed over discrete regions of interest on the chip surface for 5 minutes. […] Dissociation of the anti-idiotype antibodies was monitored for 300s. Several blank buffer samples were injected over the entire chip surface at the start of each non-regenerative kinetic cycle. The preceding blank buffer injection was used for blank surface subtraction. At the end of each non-regenerative kinetic cycle, all surfaces were regenerated via two 30s injections of 10 mM glycine, pH 1.7.
# (§3) For data processing and fitting, sensorgrams were double reference subtracted with a baseline drift correction of 4 RU. Sensorgrams were y-aligned and baseline corrected, filtered and cropped to include only the association and dissociation steps. Data was fitted to a 1:1 binding model using Carterra Kinetics Data Analysis software version 1.7.1.3055.
# ADI-26915 = molecular target: T2, ADI-26915; assay: SPR Carterra avidity, yeast anti-ID
# T2 construct: anti-CD3 antibody made in CHO cells, captured by anti-human Fc
# T2 sequence (VH, as listed by the source, chain 1 of 2): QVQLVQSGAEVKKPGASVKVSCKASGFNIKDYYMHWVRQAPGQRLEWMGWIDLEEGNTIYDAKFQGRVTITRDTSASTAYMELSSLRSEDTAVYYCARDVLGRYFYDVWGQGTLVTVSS
# T2 sequence (VL, as listed by the source, chain 2 of 2): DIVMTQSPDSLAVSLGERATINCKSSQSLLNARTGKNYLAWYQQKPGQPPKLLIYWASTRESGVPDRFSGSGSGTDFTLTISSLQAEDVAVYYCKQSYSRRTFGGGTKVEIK
# Procedure: as §1, §2, §3
# ADI-74968 = molecular target: T3, ADI-74968; assay: SPR Carterra avidity, yeast anti-ID
# T3 construct: pH-dependent anti-CD3 antibody made in CHO cells
# T3 sequence (VH, as listed by the source, chain 1 of 2): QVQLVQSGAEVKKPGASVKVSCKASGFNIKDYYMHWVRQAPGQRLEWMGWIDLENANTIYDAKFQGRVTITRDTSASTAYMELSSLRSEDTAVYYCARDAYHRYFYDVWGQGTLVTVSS
# T3 sequence (VL, as listed by the source, chain 2 of 2): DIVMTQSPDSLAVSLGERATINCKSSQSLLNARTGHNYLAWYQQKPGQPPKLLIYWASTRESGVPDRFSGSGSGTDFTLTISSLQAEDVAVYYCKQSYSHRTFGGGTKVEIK
# Procedure: as §1, §2, §3
# ADI-26921 IgG = molecular target: T4, ADI-26921 IgG; assay: SPR Carterra avidity, yeast anti-ID
# T4 construct: anti-CD3 IgG
# Procedure: as §1, §2, §3
# ADI-70330 = molecular target: T5, ADI-70330; assay: SPR Carterra avidity, yeast anti-ID
# T5 construct: anti-CD3 antibody made in CHO cells, captured by anti-human Fc
# T5 sequence (VH, as listed by the source limits assumed, chain 1 of 2): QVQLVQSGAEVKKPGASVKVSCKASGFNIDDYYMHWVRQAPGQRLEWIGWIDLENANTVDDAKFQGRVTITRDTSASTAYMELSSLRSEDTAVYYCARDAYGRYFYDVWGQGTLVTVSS
# T5 sequence (VL, as listed by the source limits assumed, chain 2 of 2): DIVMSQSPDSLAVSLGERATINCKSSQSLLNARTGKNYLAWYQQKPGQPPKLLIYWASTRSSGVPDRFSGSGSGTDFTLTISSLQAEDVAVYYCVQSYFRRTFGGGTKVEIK
# Procedure: as §1, §2, §3
# ADI-48576 = molecular target: T6, ADI-48576; assay: SPR Carterra avidity, yeast anti-ID
# T6 construct: pH-dependent anti-CD3 antibody made in CHO cells
# Procedure: as §1, §2, §3
# ADI-26916 IgG = molecular target: T7, ADI-26916 IgG; assay: SPR Carterra avidity, yeast anti-ID
# T7 construct: anti-CD3 IgG
# Procedure: as §1, §2, §3
# ADI-67447 = molecular target: T8, ADI-67447; assay: SPR Carterra avidity, yeast anti-ID
# T8 construct: anti-CD3 antibody made in CHO cells, captured by anti-human Fc
# T8 sequence (VH, as listed by the source limits assumed, chain 1 of 2): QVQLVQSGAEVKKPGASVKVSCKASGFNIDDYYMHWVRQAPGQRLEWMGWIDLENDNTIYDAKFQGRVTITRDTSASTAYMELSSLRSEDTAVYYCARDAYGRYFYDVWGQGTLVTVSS
# Procedure: as §1, §2, §3
# ADI-48592 = molecular target: T9, ADI-48592; assay: SPR Carterra avidity, yeast anti-ID
# T9 construct: pH-dependent anti-CD3 antibody made in CHO cells
# T9 sequence (VH, as listed by the source, chain 1 of 2): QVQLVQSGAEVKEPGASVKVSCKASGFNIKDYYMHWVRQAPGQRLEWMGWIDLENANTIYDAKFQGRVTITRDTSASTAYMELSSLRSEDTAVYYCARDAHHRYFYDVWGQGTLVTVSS
# T9 sequence (VL, as listed by the source, chain 2 of 2): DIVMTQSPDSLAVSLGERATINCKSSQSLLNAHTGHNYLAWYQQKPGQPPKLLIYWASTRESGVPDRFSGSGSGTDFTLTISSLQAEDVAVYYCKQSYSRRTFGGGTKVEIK
# Procedure: as §1, §2, §3
# ADI-48650 = molecular target: T10, ADI-48650; assay: SPR Carterra avidity, yeast anti-ID
# T10 construct: pH-dependent anti-CD3 antibody made in CHO cells
# T10 sequence (VH, as listed by the source, chain 1 of 2): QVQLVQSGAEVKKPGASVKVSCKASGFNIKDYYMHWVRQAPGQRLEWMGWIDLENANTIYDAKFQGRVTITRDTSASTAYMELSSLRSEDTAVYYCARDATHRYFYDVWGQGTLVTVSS
# T10 sequence (VL, as listed by the source, chain 2 of 2): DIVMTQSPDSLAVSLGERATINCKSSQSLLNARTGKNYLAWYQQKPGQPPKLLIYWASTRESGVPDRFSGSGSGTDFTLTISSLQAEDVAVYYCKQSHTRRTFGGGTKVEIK
# Procedure: as §1, §2, §3
# ADI-74966 = molecular target: T11, ADI-74966; assay: SPR Carterra avidity, yeast anti-ID
# T11 construct: pH-dependent anti-CD3 antibody made in CHO cells
# Procedure: as §1, §2, §3
# ADI-26924 = molecular target: T12, ADI-26924; assay: SPR Carterra avidity, yeast anti-ID
# T12 construct: anti-CD3 antibody made in CHO cells, captured by anti-human Fc
# T12 sequence (VH, as listed by the source, chain 1 of 2): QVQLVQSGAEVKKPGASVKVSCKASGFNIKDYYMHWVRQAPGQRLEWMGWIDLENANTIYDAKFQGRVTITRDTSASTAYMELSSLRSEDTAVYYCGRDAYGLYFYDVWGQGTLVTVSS
# T12 sequence (VL, as listed by the source, chain 2 of 2): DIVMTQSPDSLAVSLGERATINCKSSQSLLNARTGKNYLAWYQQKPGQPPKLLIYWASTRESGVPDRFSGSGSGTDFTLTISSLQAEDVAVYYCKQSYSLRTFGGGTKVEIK
# Procedure: as §1, §2, §3
# ADI-26919 = molecular target: T13, ADI-26919; assay: SPR Carterra avidity, yeast anti-ID
# T13 construct: anti-CD3 antibody made in CHO cells, captured by anti-human Fc
# Procedure: as §1, §2, §3
# CTL-62223 = molecular target: T14, CTL-62223; assay: SPR Carterra avidity, yeast anti-ID
# T14 construct: also called mosunetuzumab
# T14 sequence (VH, as listed by the source, chain 1 of 2): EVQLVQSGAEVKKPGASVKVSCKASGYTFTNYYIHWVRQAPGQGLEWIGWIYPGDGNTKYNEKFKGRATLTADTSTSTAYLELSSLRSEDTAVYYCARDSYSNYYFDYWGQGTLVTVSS
# T14 sequence (VL, as listed by the source, chain 2 of 2): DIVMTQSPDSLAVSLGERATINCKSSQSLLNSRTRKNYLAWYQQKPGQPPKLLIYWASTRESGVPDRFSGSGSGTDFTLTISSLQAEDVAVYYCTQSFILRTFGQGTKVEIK
# Procedure: as §1, §2, §3
# ADI-26913 IgG = molecular target: T15, ADI-26913 IgG; assay: SPR Carterra avidity, yeast anti-ID
# T15 construct: anti-CD3 IgG
# T15 sequence (VH, as listed by the source limits assumed, chain 1 of 2): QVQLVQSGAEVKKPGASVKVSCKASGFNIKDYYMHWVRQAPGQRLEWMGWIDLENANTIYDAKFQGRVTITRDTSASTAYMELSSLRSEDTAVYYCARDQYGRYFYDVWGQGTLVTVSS
# Procedure: as §1, §2, §3
# ADI-76359 = molecular target: T16, ADI-76359; assay: SPR Carterra avidity, yeast anti-ID
# T16 construct: anti-CD3 antibody made in CHO cells, captured by anti-human Fc
# Procedure: as §1, §2, §3
# ADI-26909 = molecular target: T17, ADI-26909; assay: SPR Carterra avidity, yeast anti-ID
# T17 construct: anti-CD3 antibody made in CHO cells, captured by anti-human Fc
# Procedure: as §1, §2, §3
# ADI-74965 = molecular target: T18, ADI-74965; assay: SPR Carterra avidity, yeast anti-ID
# T18 construct: pH-dependent anti-CD3 antibody made in CHO cells
# T18 sequence (VL, as listed by the source, chain 2 of 2): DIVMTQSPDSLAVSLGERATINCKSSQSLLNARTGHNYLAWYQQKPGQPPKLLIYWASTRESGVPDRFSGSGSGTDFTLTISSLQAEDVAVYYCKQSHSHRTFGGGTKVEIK
# Procedure: as §1, §2, §3
# ADI-26943 = molecular target: T19, ADI-26943; assay: SPR Carterra avidity, yeast anti-ID
# T19 construct: anti-CD3 antibody made in CHO cells, captured by anti-human Fc
# Procedure: as §1, §2, §3
# ADI-67445 = molecular target: T20, ADI-67445; assay: SPR Carterra avidity, yeast anti-ID
# T20 construct: anti-CD3 antibody made in CHO cells, captured by anti-human Fc
# T20 sequence (VH, as listed by the source limits assumed, chain 1 of 2): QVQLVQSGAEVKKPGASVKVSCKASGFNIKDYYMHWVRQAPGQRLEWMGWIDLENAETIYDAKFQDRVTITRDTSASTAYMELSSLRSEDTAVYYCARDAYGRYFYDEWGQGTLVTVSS
# Procedure: as §1, §2, §3
# ADI-48587 = molecular target: T21, ADI-48587; assay: SPR Carterra avidity, yeast anti-ID
# T21 construct: pH-dependent anti-CD3 antibody made in CHO cells
# Procedure: as §1, §2, §3
# ADI-70327 = molecular target: T22, ADI-70327; assay: SPR Carterra avidity, yeast anti-ID
# T22 construct: anti-CD3 antibody made in CHO cells, captured by anti-human Fc
# Procedure: as §1, §2, §3
# ADI-76358 = molecular target: T23, ADI-76358; assay: SPR Carterra avidity, yeast anti-ID
# T23 construct: anti-CD3 antibody made in CHO cells, captured by anti-human Fc
# T23 sequence (VH, as listed by the source, chain 1 of 2): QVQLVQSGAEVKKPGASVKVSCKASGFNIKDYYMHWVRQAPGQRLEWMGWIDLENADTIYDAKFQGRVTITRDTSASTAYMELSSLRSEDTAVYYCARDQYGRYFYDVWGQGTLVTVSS
# Procedure: as §1, §2, §3
# ADI-26912 = molecular target: T24, ADI-26912; assay: SPR Carterra avidity, yeast anti-ID
# T24 construct: anti-CD3 antibody made in CHO cells, captured by anti-human Fc
# Procedure: as §1, §2, §3
# ADI-76362 = molecular target: T25, ADI-76362; assay: SPR Carterra avidity, yeast anti-ID
# T25 construct: anti-CD3 antibody made in CHO cells, captured by anti-human Fc
# T25 sequence (VH, as listed by the source, chain 1 of 2): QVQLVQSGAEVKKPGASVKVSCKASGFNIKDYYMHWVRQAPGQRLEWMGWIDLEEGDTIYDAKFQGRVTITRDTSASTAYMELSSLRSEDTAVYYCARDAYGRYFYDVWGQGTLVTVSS
# Procedure: as §1, §2, §3
# ADI-76360 = molecular target: T26, ADI-76360; assay: SPR Carterra avidity, yeast anti-ID
# T26 construct: anti-CD3 antibody made in CHO cells, captured by anti-human Fc
# Procedure: as §1, §2, §3
# ADI-70326 = molecular target: T27, ADI-70326; assay: SPR Carterra avidity, yeast anti-ID
# T27 construct: anti-CD3 antibody made in CHO cells, captured by anti-human Fc
# T27 sequence (VH, as listed by the source limits assumed, chain 1 of 2): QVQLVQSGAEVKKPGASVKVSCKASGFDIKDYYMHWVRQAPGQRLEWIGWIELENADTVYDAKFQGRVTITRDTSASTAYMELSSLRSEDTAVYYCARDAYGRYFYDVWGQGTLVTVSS
# Procedure: as §1, §2, §3
# ADI-22523 IgG = molecular target: T28, ADI-22523 IgG; assay: BLI; tip anti-ID IgG, solution ADI-22523 IgG
# T28 construct: anti-CD3 IgG
# T28 sequence (VH, as listed by the source limits assumed, chain 1 of 2): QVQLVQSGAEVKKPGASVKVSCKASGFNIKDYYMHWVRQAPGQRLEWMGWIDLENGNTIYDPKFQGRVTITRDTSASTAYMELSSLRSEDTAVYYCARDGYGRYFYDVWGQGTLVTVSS
# T28 sequence (VL, as listed by the source limits assumed, chain 2 of 2): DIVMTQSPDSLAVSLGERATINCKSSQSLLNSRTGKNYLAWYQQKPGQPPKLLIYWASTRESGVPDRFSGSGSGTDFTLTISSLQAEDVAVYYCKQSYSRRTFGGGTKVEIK
# Procedure, shortened: (§4)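 Sensors carrying captured anti-ID IgG were equilibrated 30 min in assay buffer before a 60 s baseline. Equilibrium KD was taken as koff/kon from a 1:1 model.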
# ADI-22523 Fab = molecular target: T29, ADI-22523 Fab; assay: BLI; tip anti-ID IgG, solution ADI-22523 Fab
# T29 construct: anti-CD3 Fab by papain digestion of the IgG
# Procedure, shortened: as §4
# ADI-26920 IgG = molecular target: T30, ADI-26920 IgG; assay: SPR Carterra avidity, yeast anti-ID, *koff limit
# T30 construct: anti-CD3 IgG
# Procedure: as §1, §2, §3
# ADI-50024 = molecular target: T31, ADI-50024; assay: SPR Carterra avidity, yeast anti-ID, *koff limit
# T31 construct: anti-CD3 antibody made in CHO cells, captured by anti-human Fc
# Procedure: as §1, §2, §3
# ADI-76361 = molecular target: T32, ADI-76361; assay: SPR Carterra avidity, yeast anti-ID, *koff limit
# T32 construct: anti-CD3 antibody made in CHO cells, captured by anti-human Fc
# T32 sequence (VH, as listed by the source, chain 1 of 2): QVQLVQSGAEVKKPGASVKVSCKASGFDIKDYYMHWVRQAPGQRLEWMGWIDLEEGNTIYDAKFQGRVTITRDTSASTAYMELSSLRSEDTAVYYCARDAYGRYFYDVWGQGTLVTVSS
# Procedure: as §1, §2, §3
# ADI-74967 = molecular target: T33, ADI-74967; assay: SPR Carterra avidity, yeast anti-ID, *koff limit
# T33 construct: pH-dependent anti-CD3 antibody made in CHO cells
# Procedure: as §1, §2, §3
# ADI-26906 IgG = molecular target: T34, ADI-26906 IgG; assay: SPR Carterra avidity, yeast anti-ID, *koff limit
# T34 construct: anti-CD3 IgG
# Procedure: as §1, §2, §3
# ADI-76357 = molecular target: T35, ADI-76357; assay: SPR Carterra avidity, yeast anti-ID, *koff limit
# T35 construct: anti-CD3 antibody made in CHO cells, captured by anti-human Fc
# Procedure: as §1, §2, §3
# T1 sequence (VH, as listed by the source limits assumed, chain 1 of 2): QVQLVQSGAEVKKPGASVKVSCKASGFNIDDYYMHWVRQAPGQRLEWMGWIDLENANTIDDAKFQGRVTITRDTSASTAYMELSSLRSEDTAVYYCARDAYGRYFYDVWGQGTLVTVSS
binder,measurement,setting,value
B1,Kd,ADI-67450,0.56 nM
same,binding result,ADI-26915,binds
same,Kd,ADI-74968,1.2 nM
same,Kd,ADI-26921 IgG,0.18 nM
same,Kd,ADI-70330,0.42 nM
same,Kd,ADI-48576,29 nM
same,Kd,ADI-26916 IgG,0.35 nM
same,Kd,ADI-67447,0.18 nM
same,binding result,ADI-48592,binds
same,Kd,ADI-48650,3.3 nM
same,Kd,ADI-74966,0.64 nM
same,Kd,ADI-26924,0.17 nM
same,Kd,ADI-26919,0.16 nM
same,Kd,CTL-62223,1.2 nM
same,Kd,ADI-26913 IgG,0.18 nM
same,Kd,ADI-76359,0.12 nM
same,Kd,ADI-26909,0.3 nM
same,Kd,ADI-74965,9.4 nM
same,Kd,ADI-26943,0.25 nM
same,Kd,ADI-67445,0.34 nM
same,Kd,ADI-48587,1.9 nM
same,Kd,ADI-70327,2 nM
same,Kd,ADI-76358,0.73 nM
same,binding result,ADI-26912,binds
same,Kd,ADI-76362,0.14 nM
same,Kd,ADI-76360,0.35 nM
same,Kd,ADI-70326,2.1 nM
same,Kd,ADI-22523 IgG,0.75 nM
same,Kd,ADI-22523 Fab,30.4 nM
same,Kd,ADI-26920 IgG,0.14 nM
same,Kd,ADI-50024,0.42 nM
same,Kd,ADI-76361,0.1 nM
same,Kd,ADI-74967,0.15 nM
same,Kd,ADI-26906 IgG,0.25 nM
same,Kd,ADI-76357,0.12 nM
